pKd: −log10 of the molar value.
Target: recombinant anthrax protective antigen (PA) (Bacillus anthracis) (UniProt P13423)
Test: SPR (Biacore)

Sequence of recombinant anthrax protective antigen (PA) (Bacillus anthracis) (P13423 30-764 limits assumed): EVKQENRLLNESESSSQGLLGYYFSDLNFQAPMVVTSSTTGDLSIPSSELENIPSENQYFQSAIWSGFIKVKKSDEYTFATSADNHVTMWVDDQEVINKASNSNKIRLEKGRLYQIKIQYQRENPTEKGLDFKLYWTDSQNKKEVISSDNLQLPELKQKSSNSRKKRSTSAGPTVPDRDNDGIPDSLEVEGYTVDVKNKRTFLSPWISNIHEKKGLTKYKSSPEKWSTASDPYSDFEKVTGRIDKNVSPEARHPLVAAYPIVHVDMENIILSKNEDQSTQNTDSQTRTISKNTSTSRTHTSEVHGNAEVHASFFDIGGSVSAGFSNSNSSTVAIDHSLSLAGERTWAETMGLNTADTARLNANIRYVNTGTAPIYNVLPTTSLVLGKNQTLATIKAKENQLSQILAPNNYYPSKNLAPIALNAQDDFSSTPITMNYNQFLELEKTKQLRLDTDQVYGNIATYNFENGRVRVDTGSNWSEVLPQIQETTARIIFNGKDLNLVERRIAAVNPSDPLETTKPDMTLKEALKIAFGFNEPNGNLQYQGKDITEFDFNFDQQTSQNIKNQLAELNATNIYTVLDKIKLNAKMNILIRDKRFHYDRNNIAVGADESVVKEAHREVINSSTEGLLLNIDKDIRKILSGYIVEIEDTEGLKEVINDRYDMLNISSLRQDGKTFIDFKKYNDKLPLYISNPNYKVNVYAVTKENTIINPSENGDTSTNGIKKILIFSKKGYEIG

Question: How did the pKd turn out when mouse anti-PA monoclonal antibody 14B7 was run?
Answer: The pKd was 8.40.

Source: patent US20100074892A1
